Results reported in patent US20240175869A1 (BROWN UNIVERSITY, published 2024).

What was measured:
[1] = target: T1, ALK6; assay: solid-phase binding assay, ALK6 at 100 nM, FL ECD against ΔIg2 (FIG. 7)
T1 construct: Soluble ALK6 titrated at 3.125-100 nM over immobilized MuSK constructs; That is inferred from the anti-human IgG Fc detection antibody; also called BMPR1b; BMPR1B

[2] = target: T1, ALK6; assay: solid-phase binding assay, half max as printed (FIG. 9)

T1 sequence (O00238 whole entry, the tested form may be a part): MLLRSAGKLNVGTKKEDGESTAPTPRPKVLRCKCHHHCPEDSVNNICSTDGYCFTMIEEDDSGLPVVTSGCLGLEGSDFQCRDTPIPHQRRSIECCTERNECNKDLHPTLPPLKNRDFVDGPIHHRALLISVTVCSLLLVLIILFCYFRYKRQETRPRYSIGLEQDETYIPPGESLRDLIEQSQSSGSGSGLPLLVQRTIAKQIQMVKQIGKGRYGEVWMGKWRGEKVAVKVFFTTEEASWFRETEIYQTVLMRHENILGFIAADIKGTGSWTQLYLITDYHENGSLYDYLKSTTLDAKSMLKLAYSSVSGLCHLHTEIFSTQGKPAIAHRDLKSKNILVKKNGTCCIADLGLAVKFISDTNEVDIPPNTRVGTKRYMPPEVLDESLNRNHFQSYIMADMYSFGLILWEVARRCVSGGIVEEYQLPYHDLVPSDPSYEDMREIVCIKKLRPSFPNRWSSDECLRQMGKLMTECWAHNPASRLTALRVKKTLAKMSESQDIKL

fold increase in absorbance against ΔIg2 MuSK [1]: 6.6 fold
EC50 [2]: ~0.5 nM
B1: full-length ectodomain (FL ECD) of MuSK, His-tagged (receptor)
chain: EKLPKAPVITTPLETVDALVEEVATFMCAVESYPQPEISWTRNKILIKLFDTRYSIRENGQLLTILSVEDSDDGIYCCTANNGVGGAVESCGALQVKMKPKITRPPINVKIIEGLKAVLPCTTMGNPKPSVSWIKGDSALRENSRIAVLESGSLRIHNVQKEDAGQYRCVAKNSLGTAYSKLVKLEVEVFARILRAPESHNVTFGSFVTLRCTAIGMPVPTISWIENGNAVSSGSIQENVKDRVIDSRLQLFITKPGLYTCIATNKHGEKFSTAKAAATVSIAEWSKSQKESKGYCAQYRGEVCDAVLVKDSLVFFNTSYPDPEEAQELLIHTAWNELKAVSPLCRPAAEALLCNHLFQECSPGVLPTPMPICREYCLAVKELFCAKEWLAMEGKTHRGLYRSGMHFLPVPECSKLPSMHQDPTACTRLPYLDYKKENITTFPSITSSKPSVDIPNLPASTSSFAVSPAYSMT
